Tested on: growth of yeast strains under 51 stress conditions
Test: Growth assays in 51 stress conditions (Fig. 1E-F, S2D, S5B)
Format: cell-based, Saccharomyces cerevisiae
Set-up: key to Growth (Fig. S2D) / growth of ABP1 SH3-swapped strains in stress condition: log2 colony size, average of median per strain (growth score)
Details: for Growth (Fig. S2D): ABP1 SH3-swapped strains
Description: All WT, SH3-deleted, KO (except for CDC25 which is the only essential SH3-containing gene in yeast), ABP1 SH3-swapped, and SLA1 SH3-shuffled strains were grown on omnitrays in 1536 formats and robotically manipulated with a pin tool (the DHFR F[1,2] bait strains were used except for the KO strains). Each strain was randomly positioned in 6 replicates per plate and two plates per condition were performed, for 12 replicates per strain in total. A border of two rows and two columns of WT strains (BY4741) around the plate was used to remove border effects. Strains were grown on YPD media for two days at 30 °C. They were then replicated on 51 different media that are described in the Supplementary Table 3 and were incubated at 37 °C in a spImager custom platform with images acquired every two hours for four days. The colony sizes from plate pictures were also measured with the R package “Gitter” and the output was manually inspected. Positions with an abnormality in colony circularity were removed. The colony sizes after 74 h of incubation at 37 °C were log2 transformed and used for the analyses. First, the differences between the two plate replicates were corrected to remove plate effects. The median colony size was calculated for each strain per plate. Strains with a difference in their median colony size of more than two between the two plate replicates were removed. Finally, the average of the median colony size was calculated for each strain per condition (growth score).

B1: CYK3 (protein, UniProt Q07533 1-885, looked up)
Cytokinesis protein 3: MATNLTSLKPPFKVKARYGWSGQTKGDLGFLEGDIMEVTRIAGSWFYGKLLRNKKCSGYFPHNFVILLEERLNSSTENGRQPSKIVESFEKSNKVVIPPVPSRYSDERPRPKKKLSSSMPNSPKKPVDSLTKARKAKSKEMVNEKNIYNTQSSRHHNNSAPNLPLASHSKPQVRNFEESMNNPLPPLPPLPDLDNMRKTDKRAPKKSYSANDLHMARSSREYNYYKDNQKFYDGFIPEKRYSLEEDSISSGLFSNSQYLNDSACSSENSFALMSDFSATSAGSFARHKYAQSFSDSLQRSQNANGCSTKINDSQEFGDSNASSRNGKMGDILRKIIIPKRNTNIYSSSVSSPKSPKAYPKLPDIQNLNLSATPDEARDWIAVKCHLNRARTLTKYDKHPRYMRALEENRDLILHPQDSIYNGLNTNEVKGNTKPGLVDVELAELNIEYIDKMTWKRCIRDGTMTLDSWAQTTFSARYSTVLEKLRGIYIFCTEMFALTDDNGTSDFSAEPQNLEKILYRKHCTPYELTWLFKKLANSLGITCEIVIGFLKTPSAINWEFKYNHCWLRILVNKEWRFIDVILGNVTNPIHEFVNNRKIKKAENSYFLMAPLEMIYTHIPPREFEQHIVPSIDQLSALYLPLVFPSFFKNELKLYKFSTALSFLEDSEIYECSLEIPNDVEVFASVVIPTDNEEASSAYRNMELALTQIKKQKAESGRRIALIKAVLPPNVNKGSLYIHSGVRGTQTSIANIHPLSMMVPLTHKGSNMKYEFVIKIPSESIQKIELYIVEPQSRYLFVGNEYSFEVIQSPSDGIVYSSDEGPNQNRKQPMAIKSPSGRVHELVKSDPHFPYGTWKGSIKIKEPGVWSALVIADSGIGWSVFAEWLCV
- Growth (Fig. S2D) (Bathophenanthroline.0.1uM): 10.8556
- Growth (Fig. S2D) (Bathophenanthroline.10uM): 10.6576
- Growth (Fig. S2D) (Bathophenanthroline.1uM): 10.8513
- Growth (Fig. S2D) (CaCl2.100mM): 10.8897
- Growth (Fig. S2D) (CaCl2.250mM): 10.7885
- Growth (Fig. S2D) (CaCl2.500mM): 10.3059
- Growth (Fig. S2D) (Caffein.10mM): 9.982
- Growth (Fig. S2D) (Caffein.2mM): 10.9591
- Growth (Fig. S2D) (CdCl2.100uM): 9.489
- Growth (Fig. S2D) (CdCl2.10uM): 10.8859
- Growth (Fig. S2D) (CdCl2.50uM): 9.907
- Growth (Fig. S2D) (CuSO4.1mM): 10.4416
- Growth (Fig. S2D) (CuSO4.5mM): 8.067
- Growth (Fig. S2D) (Cycloheximide.0.05.uM): 11.0397
- Growth (Fig. S2D) (Cycloheximide.0.2.uM): 10.6845
- Growth (Fig. S2D) (Cycloheximide.0.5.uM): 10.0538
- Growth (Fig. S2D) (DMSO.2.): 11.074
- Growth (Fig. S2D) (DMSO.6.): 9.997
- Growth (Fig. S2D) (DMSO.8.): 9.341
- Growth (Fig. S2D) (Ethanol.2.): 10.829
- Growth (Fig. S2D) (Ethanol.6.): 10.3434
- Growth (Fig. S2D) (Ethanol.8.): 10.1675
- Growth (Fig. S2D) (Galactose.2.): 10.8951
- Growth (Fig. S2D) (Glycerol.2.): 9.685
- Growth (Fig. S2D) (Hydroxyurea.25mM): 10.7817
- Growth (Fig. S2D) (Hygromycin.190uM): 10.9791
- Growth (Fig. S2D) (Hygromycin.19uM): 10.9621
- Growth (Fig. S2D) (Hygromycin.95uM): 11.0521
- Growth (Fig. S2D) (MMS.0.004.): 10.9601
- Growth (Fig. S2D) (MMS.0.02.): 10.7185
- Growth (Fig. S2D) (MMS.0.04.): 9.916
- Growth (Fig. S2D) (Menadione.100uM): 10.6134
- Growth (Fig. S2D) (Menadione.200uM): 10.436
- Growth (Fig. S2D) (Menadione.50uM): 10.8202
- Growth (Fig. S2D) (NaCl.0.25M): 10.7906
- Growth (Fig. S2D) (NaCl.1M): 9.617
- Growth (Fig. S2D) (Nitroquinoline.10uM): 10.7078
- Growth (Fig. S2D) (Nitroquinoline.50uM): 10.6701
- Growth (Fig. S2D) (Nystatin.0.01uM): 11.0601
- Growth (Fig. S2D) (Nystatin.0.1uM): 11.0266
- Growth (Fig. S2D) (Raffinose.2.): 11.0502
- Growth (Fig. S2D) (Rapamycin.10nM): 9.888
- Growth (Fig. S2D) (Rapamycin.50nM): 9.494
- Growth (Fig. S2D) (SC.pH3): 10.4532
- Growth (Fig. S2D) (SC.pH6): 11.0119
- Growth (Fig. S2D) (SDS.0.01.): 11.0053
- Growth (Fig. S2D) (SDS.0.02.): 10.9934
- Growth (Fig. S2D) (SDS.0.05.): 10.9282
- Growth (Fig. S2D) (Sorbitol.10mM): 11.048
- Growth (Fig. S2D) (Sorbitol.1mM): 11.0333
- Growth (Fig. S2D) (Sorbitol.5mM): 10.9546

B2: ABP1: yeast SH3-containing protein; SH3-deleted (D) or gene-deleted (KO) strain (protein, UniProt P15891 2-592, looked up)
Actin-binding protein: ALEPIDYTTHSREIDAEYLKIVRGSDPDTTWLIISPNAKKEYEPESTGSSFHDFLQLFDETKVQYGLARVSPPGSDVEKIIIIGWCPDSAPLKTRASFAANFAAVANNLFKGYHVQVTARDEDDLDENELLMKISNAAGARYSIQTSSKQQGKASTPPVKKSFTPSKSPAPVSKKEPVKTPSPAPAAKISSRVNDNNDDDDWNEPELKERDFDQAPLKPNQSSYKPIGKIDLQKVIAEEKAKEDPRLVQKPTAAGSKIDPSSDIANLKNESKLKRDSEFNSFLGTTKPPSMTESSLKNDDDKVIKGFRNEKSPAQLWAERKAKQNSGNAETKAEAPKPEVPEDEPEGEPDVKDLKSKFEGLAASEKEEEEMENKFAPPPKKSEPTIISPKPFSKPQEPVKAEEAEQPKTDYKKIGNPLPGMHIEADNEEEPEENDDDWDDDEDEAAQPPLPSRNVASGAPVQKEEPEQEEIAPSLPSRNSIPAPKQEEAPEQAPEEEIEEEAEEAAPQLPSRSSAAPPPPPRRATPEKKPKENPWATAEYDYDAAEDNELTFVENDKIINIEFVDDDWWLGELEKDGSKGLFPSNYVSLGN
- size (colony size) (Abp1 SH3 swaps (FigS2D), SC pH6, Plate 1, Time 74, Rep 1, one colony): 2065
- relative_to_wt, D_minus_WT (Bathophenanthroline 0.1uM, D = SH3 deletion (all SH3s deleted for multi-SH3 proteins), log2 colony size, 74 h at 37 °C, n = 12): 0.05618
- relative_to_wt, KO_minus_WT (Bathophenanthroline 0.1uM, KO = gene deletion, log2 colony size, 74 h at 37 °C, n = 12): -0.004019
- Growth (Fig. S2D) (Bathophenanthroline.0.1uM): 10.7819
- Growth (Fig. S2D) (Bathophenanthroline.10uM): 10.707
- Growth (Fig. S2D) (Bathophenanthroline.1uM): 10.7137
- Growth (Fig. S2D) (CaCl2.100mM): 10.7891
- Growth (Fig. S2D) (CaCl2.250mM): 10.7489
- Growth (Fig. S2D) (CaCl2.500mM): 10.224
- Growth (Fig. S2D) (Caffein.10mM): 10.0464
- Growth (Fig. S2D) (CdCl2.10uM): 10.9024
- Growth (Fig. S2D) (CdCl2.50uM): 10.1243
- Growth (Fig. S2D) (CuSO4.1mM): 10.685
- Growth (Fig. S2D) (CuSO4.5mM): 8.504
- Growth (Fig. S2D) (Cycloheximide.0.05.uM): 11.0798
- Growth (Fig. S2D) (Cycloheximide.0.2.uM): 10.7165
- Growth (Fig. S2D) (Cycloheximide.0.5.uM): 10.6015
- Growth (Fig. S2D) (DMSO.2.): 11.0276
- Growth (Fig. S2D) (DMSO.6.): 10.032
- Growth (Fig. S2D) (DMSO.8.): 9.2108
- Growth (Fig. S2D) (Ethanol.2.): 10.8119
- Growth (Fig. S2D) (Ethanol.6.): 10.4593
- Growth (Fig. S2D) (Ethanol.8.): 10.4305
- Growth (Fig. S2D) (Galactose.2.): 10.8275
- Growth (Fig. S2D) (Glycerol.2.): 10.3524
- Growth (Fig. S2D) (Hydroxyurea.25mM): 10.8959
- Growth (Fig. S2D) (Hygromycin.190uM): 10.9986
- Growth (Fig. S2D) (Hygromycin.19uM): 10.9797
- Growth (Fig. S2D) (Hygromycin.95uM): 11.0235
- Growth (Fig. S2D) (MMS.0.004.): 10.9969
- Growth (Fig. S2D) (MMS.0.02.): 10.8642
- Growth (Fig. S2D) (MMS.0.04.): 10.3851
- Growth (Fig. S2D) (Menadione.100uM): 10.5759
- Growth (Fig. S2D) (Menadione.200uM): 10.5046
- Growth (Fig. S2D) (Menadione.50uM): 10.8116
- Growth (Fig. S2D) (NaCl.0.25M): 10.7355
- Growth (Fig. S2D) (NaCl.1M): 10.3236
- Growth (Fig. S2D) (Nitroquinoline.10uM): 10.7675
- Growth (Fig. S2D) (Nitroquinoline.50uM): 10.7265
- Growth (Fig. S2D) (Nystatin.0.01uM): 11.043
- Growth (Fig. S2D) (Nystatin.0.1uM): 11.0609
- Growth (Fig. S2D) (Raffinose.2.): 10.9185
- Growth (Fig. S2D) (Rapamycin.10nM): 10.1065
- Growth (Fig. S2D) (Rapamycin.50nM): 9.408
- Growth (Fig. S2D) (SC.pH3): 10.3986
- Growth (Fig. S2D) (SC.pH6): 11.0415
- Growth (Fig. S2D) (SDS.0.01.): 10.9914
- Growth (Fig. S2D) (SDS.0.02.): 10.9706
- Growth (Fig. S2D) (SDS.0.05.): 10.8264
- Growth (Fig. S2D) (Sorbitol.10mM): 10.9836
- Growth (Fig. S2D) (Sorbitol.1mM): 10.9924
- Growth (Fig. S2D) (Sorbitol.5mM): 10.9128
